Consider one molecule from US20250382367A1 (published 2025).

For assay [1], the target named is T1, biotinylated CD150 protein (UniProt Q13291 21-237, labeled with biotin, sites not stated).
T1 chain: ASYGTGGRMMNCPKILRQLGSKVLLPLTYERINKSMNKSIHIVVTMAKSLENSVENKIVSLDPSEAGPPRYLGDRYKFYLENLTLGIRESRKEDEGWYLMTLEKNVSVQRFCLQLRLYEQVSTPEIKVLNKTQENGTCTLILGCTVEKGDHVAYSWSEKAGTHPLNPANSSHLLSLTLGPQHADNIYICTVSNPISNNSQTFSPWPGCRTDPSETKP
The assay is described as follows: BLI. For orientation: In BLI a coated tip is dipped into the sample, and binding shifts an interference pattern.

In assay [2] the target is CD150 protein (extracellular domain, hFc fragment cleaved off with TEV protease) (UniProt Q13291). The experiment in a line: non-competitive ELISA; CD150 coated at 10 ug/mL, nanobody Fc fusion diluted 1:4 in series, HRP anti-IgG1 Fc detection. Background: In an ELISA, binding on a coated surface is turned into a signal by an enzyme label.

B1: nanobody Fc fusion protein (anti-CD150 nanobody fused with human IgG1 Fc) (Fc fusion)
chain: QVQLVESGGGLVQAGGSLRLSCAASGRAFSDYAVGWFRQAPGREREFVATISWSGFSTYYADSVKGRFTISRDNAEKTVTLQMNSLKPEDTAVYYCAADRNGTSFPYIRRDEYDYWGQGTQVT
For the molecule B1, the Kd – broadly, the concentration at which binding is half-saturated – in assay [1] stood at 20.1 nM. Moreover, the EC50 – broadly, the concentration needed to bring the measured effect to its halfway point – in assay [2] came to 0.0333 µg/mL.
